This note sets out measurements from PMC6709600 (Nature, 2019).

The data set “cryo-EM structure” concerns the molecule itself. Put plainly: cryo-EM structure.
The data set “crystal structure” concerns the molecule itself. The experiment in a line: crystal structure.

B1: full-length mGlu5, HA-FLAG-human mGlu5 (21-865) with a C-terminal hexahistidine tag (receptor)
chain: QSSERRVVAHMPGDIIIGALFSVHHQPTVDKVHERKCGAVREQYGIQRVEAMLHTLERINSDPTLLPNITLGCEIRDSCWHSAVALEQSIEFIRDSLISSEEEEGLVRCVDGSSSSFRSKKPIVGVIGPGSSSVAIQVQNLLQLFNIPQIAYSATSMDLSDKTLFKYFMRVVPSDAQQARAMVDIVKRYNWTYVSAVHTEGNYGESGMEAFKDMSAKEGICIAHSYKIYSNAGEQSFDKLLKKLTSHLPKARVVACFCEGMTVRGLLMAMRRLGLAGEFLLLGSDGWADRYDVTDGYQREAVGGITIKLQSPDVKWFDDYYLKLRPETNHRNPWFQEFWQHRFQCRLEGFPQENSKYNKTCNSSLTLKTHHVQDSKMGFVINAIYSMAYGLHNMQMSLCPGYAGLCDAMKPIDGRKLLESLMKTNFTGVSGDTILFDENGDSPGRYEIMNFKEMGKDYFDYINVGSWDNGELKMDDDEVWSKKSNIIRSVCSEPCEKGQIKVIRKGEVSCCWTCTPCKENEYVFDEYTCKACQLGSWPTDDLTGCDLIPVQYLRWGDPEPIAAVVFACLGLLATLFVTVVFIIYRDTPVVKSSSRELCYIILAGICLGYLCTFCLIAKPKQIYCYLQRIGIGLSPAMSYSALVTKTNRIARILAGSKKKICTKKPRFMSACAQLVIAFILICIQLGIIVALFIMEPPDIMHDYPSIREVYLICNTTNLGVVTPLGYNGLLILSCTFYAFKTRNVPANFNEAKYIAFTMYTTCIIWLAFVPIYFGSNYKIITMCFSVSLSATVALGCMFVPKVYIILAKPERNVRSAFTTSTVVRMHVGDGKSSSAASRSSSLVNL
In the case of B1, the binding result in “cryo-EM structure” is “binds”.

B2: mGlu5 ECD (residues 21-569 of wild-type human metabotropic glutamate receptor subtype 5) (domain or fragment)
chain: QSSERRVVAHMPGDIIIGALFSVHHQPTVDKVHERKCGAVREQYGIQRVEAMLHTLERINSDPTLLPNITLGCEIRDSCWHSAVALEQSIEFIRDSLISSEEEEGLVRCVDGSSSSFRSKKPIVGVIGPGSSSVAIQVQNLLQLFNIPQIAYSATSMDLSDKTLFKYFMRVVPSDAQQARAMVDIVKRYNWTYVSAVHTEGNYGESGMEAFKDMSAKEGICIAHSYKIYSNAGEQSFDKLLKKLTSHLPKARVVACFCEGMTVRGLLMAMRRLGLAGEFLLLGSDGWADRYDVTDGYQREAVGGITIKLQSPDVKWFDDYYLKLRPETNHRNPWFQEFWQHRFQCRLEGFPQENSKYNKTCNSSLTLKTHHVQDSKMGFVINAIYSMAYGLHNMQMSLCPGYAGLCDAMKPIDGRKLLESLMKTNFTGVSGDTILFDENGDSPGRYEIMNFKEMGKDYFDYINVGSWDNGELKMDDDEVWSKKSNIIRSVCSEPCEKGQIKVIRKGEVSCCWTCTPCKENEYVFDEYTCKACQLGSWPTDDLTGCDLIP
B2: the binding result in “crystal structure” is listed as “binds”.
